Sequences and labels used below:
T1: human FcγRIIB (human, UniProt P31994 43-310)
T1 construct: whole, on cells; also called CD32b; FcγR2B
T1 sequence (looked up): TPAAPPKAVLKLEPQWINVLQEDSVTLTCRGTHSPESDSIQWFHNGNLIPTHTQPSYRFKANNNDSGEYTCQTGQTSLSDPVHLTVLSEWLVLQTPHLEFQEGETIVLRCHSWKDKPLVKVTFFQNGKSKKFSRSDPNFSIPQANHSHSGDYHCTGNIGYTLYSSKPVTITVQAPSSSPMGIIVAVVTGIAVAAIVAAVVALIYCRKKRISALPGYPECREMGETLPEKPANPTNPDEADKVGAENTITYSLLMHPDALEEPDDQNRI

B1: 383-huIgG4m20 (antibody)
heavy: not shown
light: DIQMTQSPSSVSASVGDRVTITCRASQGIYSWLAWYQQKPGKAPNLLIYTASTLQSGVPSRFSGSGSGTDFTLTISSLQPEDFATYYCQQANIFPLTFGGGTKVEIKRTVAAPSVFIFPPSDEQLKSGTASVVCLLNNFYPREAKVQWKVDNALQSGNSQESVTEQDSKDSTYSLSSTLTLSKADYEKHKVYACEVTHQGLSSPVTKSFNRGEC
B2: 383-huIgG2m44 (antibody)
heavy: not shown
light: B1 light
B3: 383-huIgG4mAA (antibody)
heavy: not shown
light: B1 light
B4: 383-huIgG2m19 (antibody)
heavy: not shown
light: B1 light
B5: 383-huIgG1 (antibody)
heavy chain: not shown
light chain: B1 light
notes: anti-CD40 antibody 383 on a wild-type human IgG1 constant region
B6: 383-huIgG2m20 (antibody)
heavy: not shown
light: B1 light
notes: also called 383-G2m20; 383-IghuG2m20
B7: 383-huIgG1m240 (antibody)
heavy: not shown
light: B1 light
B8: 383-huIgG1m49 (antibody)
heavy: not shown
light: B1 light
B9: 383-huIgG4SP (antibody)
heavy chain: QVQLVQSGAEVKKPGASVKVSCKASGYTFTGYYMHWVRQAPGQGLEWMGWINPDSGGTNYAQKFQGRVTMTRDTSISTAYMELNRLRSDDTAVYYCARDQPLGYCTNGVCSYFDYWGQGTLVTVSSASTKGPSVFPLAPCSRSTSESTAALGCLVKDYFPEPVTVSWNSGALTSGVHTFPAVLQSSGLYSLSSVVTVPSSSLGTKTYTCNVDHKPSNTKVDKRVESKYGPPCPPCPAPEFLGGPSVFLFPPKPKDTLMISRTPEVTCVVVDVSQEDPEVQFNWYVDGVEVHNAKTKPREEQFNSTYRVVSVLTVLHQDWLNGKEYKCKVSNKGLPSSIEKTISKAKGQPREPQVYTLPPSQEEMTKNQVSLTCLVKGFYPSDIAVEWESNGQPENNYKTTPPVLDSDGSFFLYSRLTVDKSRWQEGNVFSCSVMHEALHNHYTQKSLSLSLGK
light chain: B1 light
notes: anti-CD40 antibody 383 on a human IgG4 S228P constant region
B10: 383-huIgG2m1 (antibody)
heavy: not shown
light: B1 light
B11: 383-huIgG1 N297A (antibody)
heavy: not shown
light: B1 light
notes: the entry already carries the change
B12: 383-huIgG4m41 (antibody)
heavy: not shown
light: B1 light
B13: 383-huIgG2G4 (antibody)
heavy: not shown
light: B1 light
B14: 383-huIgG1m50 (antibody)
heavy: not shown
light: B1 light
B15: 383-huIgG4m30 (antibody)
heavy: not shown
light: B1 light
B16: 383-huIgG1mAA (antibody)
heavy: not shown
light: B1 light
B17: 383-huIgG1m45 (antibody)
heavy: not shown
light: B1 light
B18: 383-huIgG1m40 (antibody)
heavy: not shown
light: B1 light
B19: 383-huIgG2m40 (antibody)
heavy: not shown
light: B1 light
notes: also called 383-G2m40; 383-IghuG2m40
B20: 383-huIgG4mPE (antibody)
heavy: not shown
light: B1 light
B21: 383-huIgG2mAA (antibody)
heavy: not shown
light: B1 light
B22: 383-huIgG2m43 (antibody)
heavy: not shown
light: B1 light
B23: 383-huIgG1m47 (antibody)
heavy: not shown
light: B1 light
B24: 383-huIgG2m2040 (antibody)
heavy: not shown
light: B1 light
B25: 383-huIgG1m48 (antibody)
heavy: not shown
light: B1 light
B26: 383-huIgG4m42 (antibody)
heavy: not shown
light: B1 light
B27: 383-huIgG4m2 (antibody)
heavy: not shown
light: B1 light
B28: 383-huIgG4m40 (antibody)
heavy: not shown
light: B1 light
B29: 383-huIgG4m46 (antibody)
heavy: not shown
light: B1 light
B30: 383-huIgG1mAAG (antibody)
heavy: not shown
light: B1 light
notes: Anti-CD40 antibody 383 with Fc variant G1mAAG; also called G1mAG
B31: 383-huIgG1m2 (antibody)
heavy: not shown
light: B1 light
notes: also called 383-G1m2
B32: 383-huIgG1m27 (antibody)
heavy: not shown
light: B1 light

T2 sequence (P12314 16-374): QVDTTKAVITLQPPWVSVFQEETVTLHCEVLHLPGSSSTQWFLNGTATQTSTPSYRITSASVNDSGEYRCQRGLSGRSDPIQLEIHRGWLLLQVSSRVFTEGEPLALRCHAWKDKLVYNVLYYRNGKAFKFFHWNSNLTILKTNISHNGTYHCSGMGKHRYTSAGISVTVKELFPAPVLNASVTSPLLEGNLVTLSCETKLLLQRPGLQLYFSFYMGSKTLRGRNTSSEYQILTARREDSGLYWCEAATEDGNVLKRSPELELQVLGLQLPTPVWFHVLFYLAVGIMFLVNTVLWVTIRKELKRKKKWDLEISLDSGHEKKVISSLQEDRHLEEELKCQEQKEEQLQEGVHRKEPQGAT

One assay has as its target T2, human FcγRI (human, UniProt P12314 16-374).
T2 construct: whole, on cells; also called CD64
The experiment in a line: FACS on CHO cells expressing human FcγRI (MFI). As to the method: (§1) For FACS analysis of the IgG mutants' binding to different FcγRs, FcγR overexpressing CHO cells were harvested using trypsin-EDTA and were suspended in cold staining buffer (3% BSA in PBS). Test IgG mutants, which were diluted in staining buffer, were added into the cells. The mixture was incubated at 4° C. for 2 hours, and then washed twice with cold staining buffer and re-suspended in PE-labeled anti-human IgG followed by incubation at 4° C. for 2 hours. The mixture was washed twice with staining buffer and re-suspended in 2% PFA in PBS for FACS.
Take B1: the binding result is “no binding (tested: 30 µg/mL)”.

In the case of B2, the binding result is “no binding (tested: 30 µg/mL)”.

For B3, the binding result was “binds”.

As to B4, the binding result is “no binding (tested: 30 µg/mL)”.

With B5, the binding result is on record as “binds”.

Take B6: the binding result is given as “no binding (tested: 30 µg/mL)”.

For the molecule B7, the binding result is “no binding (tested: 30 µg/mL)”.

Consider B8, for which the binding result is reported as “binds”.

As for B9, the binding result is given as “binds”.

For the molecule B10, the binding result is “no binding (tested: 30 µg/mL)”.

For the molecule B11, the binding result is on record as “binds”.

For the molecule B12, the binding result is given as “no binding (tested: 30 µg/mL)”.

As for B13, the binding result was “no binding (tested: 30 µg/mL)”.

In the case of B14, the binding result is recorded as “binds”.

On to B15, for which the binding result is recorded as “no binding (tested: 30 µg/mL)”.

Take B16: the binding result is “no binding (tested: 30 µg/mL)”.

As for B17, the binding result is “no binding (tested: 30 µg/mL)”.

For B18, the binding result is “no binding (tested: 30 µg/mL)”.

With B19, the binding result is reported as “no binding (tested: 30 µg/mL)”.

B20: the binding result is “binds”.

As for B21, the binding result is reported as “no binding (tested: 30 µg/mL)”.

For B22, the binding result is reported as “no binding (tested: 30 µg/mL)”.

Consider B23, for which the binding result is given as “no binding (tested: 30 µg/mL)”.

Turning to B24, the binding result is recorded as “no binding (tested: 30 µg/mL)”.

As for B25, the binding result is “binds”.

Regarding B26, the binding result is given as “no binding (tested: 30 µg/mL)”.

In a further assay the target is T3, human FcγRIII (human, UniProt P08637 17-254).
T3 construct: whole, on cells; also called FcγRIIIA; CD16a
T3 sequence (P08637 17-254): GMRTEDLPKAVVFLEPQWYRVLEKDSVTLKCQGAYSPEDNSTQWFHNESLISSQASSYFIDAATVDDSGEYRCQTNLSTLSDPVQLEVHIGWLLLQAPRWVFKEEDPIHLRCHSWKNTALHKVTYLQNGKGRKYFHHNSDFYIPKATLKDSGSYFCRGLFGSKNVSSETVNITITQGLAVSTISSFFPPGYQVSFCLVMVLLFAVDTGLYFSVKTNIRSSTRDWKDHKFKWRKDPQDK
The experiment in a line: FACS on CHO cells expressing human FcγRIIIA (MFI). As to the method: as §1
In the case of B27, the binding result is recorded as “no binding (tested: 30 µg/mL)”.

Turning to B1, the binding result was “no binding (tested: 30 µg/mL)”.

As for B2, the binding result is “no binding (tested: 30 µg/mL)”.

As for B4, the binding result is “no binding (tested: 30 µg/mL)”.

Turning to B6, the binding result is reported as “no binding (tested: 30 µg/mL)”.

B28: the binding result is reported as “no binding (tested: 30 µg/mL)”.

As for B29, the binding result is “no binding (tested: 30 µg/mL)”.

For the molecule B9, the binding result is on record as “no binding (tested: 30 µg/mL)”.

In the case of B10, the binding result is “no binding (tested: 30 µg/mL)”.

Turning to B11, the binding result was “no binding (tested: 30 µg/mL)”.

As for B12, the binding result is listed as “no binding (tested: 30 µg/mL)”.

With B30, the binding result is listed as “no binding (tested: 30 µg/mL)”.

As to B13, the binding result is recorded as “no binding (tested: 30 µg/mL)”.

Take B15: the binding result was “no binding (tested: 30 µg/mL)”.

On to B16, for which the binding result is “no binding (tested: 30 µg/mL)”.

Regarding B18, the binding result was “no binding (tested: 30 µg/mL)”.

Turning to B19, the binding result is on record as “no binding (tested: 30 µg/mL)”.

As for B21, the binding result is given as “no binding (tested: 30 µg/mL)”.

Turning to B22, the binding result is “no binding (tested: 30 µg/mL)”.

Take B24: the binding result is on record as “no binding (tested: 30 µg/mL)”.

Take B25: the binding result is reported as “no binding (tested: 30 µg/mL)”.

For B26, the binding result is “no binding (tested: 30 µg/mL)”.

For another assay, the target named is T1, human FcγRIIB. The experiment in a line: FACS on CHO cells expressing human FcγRIIB (MFI). Here is the method:
as §1
With B31, the binding result is “binds”.

In the case of B27, the binding result is reported as “binds”.

In the case of B1, the binding result is on record as “no binding (tested: 30 µg/mL)”.

For the molecule B2, the binding result is on record as “binds”.

Consider B3, for which the binding result is listed as “binds”.

Consider B4, for which the binding result is recorded as “binds”.

Consider B5, for which the binding result is “binds”.

As to B6, the binding result is “binds”.

As for B28, the binding result is “no binding (tested: 30 µg/mL)”.

For the molecule B8, the binding result was “binds”.

As to B29, the binding result was “binds”.

For B9, the binding result is given as “binds”.

For B10, the binding result was “no binding (tested: 30 µg/mL)”.

For the molecule B11, the binding result is listed as “binds”.

In the case of B12, the binding result is listed as “no binding (tested: 30 µg/mL)”.

In the case of B30, the binding result is listed as “no binding (tested: 30 µg/mL)”.

For B13, the binding result is reported as “binds”.

Turning to B14, the binding result is listed as “binds”.

B16: the binding result is “no binding (tested: 30 µg/mL)”.

For B17, the binding result is listed as “binds”.

As to B18, the binding result is on record as “no binding (tested: 30 µg/mL)”.

Consider B19, for which the binding result is “no binding (tested: 30 µg/mL)”.

In the case of B20, the binding result was “binds”.

Turning to B21, the binding result is reported as “binds”.

As for B32, the binding result is “binds”.

Turning to B23, the binding result was “binds”.

Consider B25, for which the binding result is recorded as “binds”.

In the case of B26, the binding result is reported as “no binding (tested: 30 µg/mL)”.
